In publication PMC7353164:

Biological target: Tim21HA (yeast) (UniProt P53220)
Test: co-IP

Chain of UniProt P53220 (P53220 71-239): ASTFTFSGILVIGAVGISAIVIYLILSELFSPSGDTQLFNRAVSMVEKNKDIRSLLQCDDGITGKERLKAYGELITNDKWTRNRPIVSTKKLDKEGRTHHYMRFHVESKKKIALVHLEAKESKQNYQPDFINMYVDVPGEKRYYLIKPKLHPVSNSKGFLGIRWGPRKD

percent reduction of co-precipitation against wild type: 50%
Substance: Mgr2 G26L (from UniProt Q02889 1-113) (natural protein)
